From patent publication US20140030216

Columns and labels:
[1] = target: rhMCP-3, P80098
[2] = target: T1, recombinant rhIFNAR1 (≈110 kD), P17181
T1 chain: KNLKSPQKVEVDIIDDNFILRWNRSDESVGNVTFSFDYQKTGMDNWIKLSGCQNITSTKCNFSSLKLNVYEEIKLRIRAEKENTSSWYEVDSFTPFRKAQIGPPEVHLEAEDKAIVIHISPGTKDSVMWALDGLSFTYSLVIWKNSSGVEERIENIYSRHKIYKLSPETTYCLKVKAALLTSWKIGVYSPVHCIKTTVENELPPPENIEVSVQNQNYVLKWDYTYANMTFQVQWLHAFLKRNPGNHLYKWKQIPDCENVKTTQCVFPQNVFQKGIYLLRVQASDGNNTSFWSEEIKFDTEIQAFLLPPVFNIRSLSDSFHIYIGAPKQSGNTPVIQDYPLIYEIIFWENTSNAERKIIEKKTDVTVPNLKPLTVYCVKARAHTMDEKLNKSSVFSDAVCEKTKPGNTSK

Sequence of rhMCP-3, P80098 (P80098 24-99): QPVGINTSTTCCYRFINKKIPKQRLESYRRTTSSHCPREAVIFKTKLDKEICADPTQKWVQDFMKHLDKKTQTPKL

B1: Purified human MMP-2 (mixture of the proenzyme (50%) and the active form (50%)) (protein)
chain: YNFFPRKPKWDKNQITYRIIGYTPDLDPETVDDAFARAFQVWSDVTPLRFSRIHDGEADIMINFGRWEHGDGYPFDGKDGLLAHAFAPGTGVGGDSHFDDDELWTLGEGQVVRVKYGNADGEYCKFPFLFNGKEYNSCTDTGRSDGFLWCSTTYNFEKDGKYGFCPHEALFTMGGNAEGQPCKFPFRFQGTSYDSCTTEGRTDGYRWCGTTEDYDRDKKYGFCPETAMSTVGGNSEGAPCVFPFTFLGNKYESCTSAGRSDGKMWCATTANYDDDRKWGFCPDQGYSLFLVAAHEFGHAMGLEHSQDPGALMAPIYTYTKNFRLSQDDIKGIQELYGASPDIDLGTGPTPTLGPVTPEICKQDIVFDGIAQIRGEIFFFKDRFIWRTVTPRDKPMGPLLVATFWPELPEKIDAVYEAPQEEKAVFFAGNEYWIYSASTLERGYPKPLTSLGLPPDVQRVDAAFNWSKNKKTYIFAGDKFWRYNEVKKKMDPGFPKLIADAWNAIPDNLDAVVDLQGGGHSYFFKGAYYLKLENQSLKSVKFGSIKSDWLGC
MCP-3 degradation (MCP-3 content by ELISA after overnight incubation) [1]: MMP-2 activity was controlled by measuring its capacity to degrade MCP-3
degradation of rhIFNAR1 after overnight incubation with MMP-2 (Western blot) [2]: recombinant rhIFNAR1 (≈110 kD) incubated overnight with active MMP-2 was degraded by MMP-2
